Experimental data from US11730743B2, “Protection of cells from degeneration and treatment of geographic atrophy” (University of Kentucky Research Foundation, priority 2012, dated 2023).

Experiments:
Caspase-1 = biological target: T1, Caspase-1 (Homo sapiens, UniProt P29466); assay: Caspase-1 activation in cultured cells (western blot p20, Caspalux1 substrate cleavage); type: cell-based; conditions: human RPE cells
T1 construct: endogenous in cells; host or cells: primary human RPE cells; also THP-1 and HeLa cells
T1 sequence (P29466 120-297 limits assumed): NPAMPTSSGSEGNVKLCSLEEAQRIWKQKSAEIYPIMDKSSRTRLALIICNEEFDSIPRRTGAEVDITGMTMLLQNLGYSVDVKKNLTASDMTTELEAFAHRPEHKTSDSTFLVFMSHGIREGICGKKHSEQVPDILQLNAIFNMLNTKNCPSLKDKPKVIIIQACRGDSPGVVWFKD
T1 sequence (P29466 317-404 limits assumed): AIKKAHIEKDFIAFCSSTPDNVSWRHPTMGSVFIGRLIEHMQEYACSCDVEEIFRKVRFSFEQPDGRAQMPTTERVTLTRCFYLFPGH
Method: Protein abundance and activity. Protein abundance was assessed by Western blot analysis using primary antibodies recognizing Caspase-1 (1:500; Invitrogen), pIRAK1 (1:500; Thermo Scientific), pIRAK4 (1:500, Abbomax, Inc), PYCARD (1:200, Santa Cruz Biotechnology), NLRP3 (1:500, Enzo Life Sciences) and Vinculin (1:1,000; Sigma-Aldrich). Caspase-1 activity was visualized using Caspalux1 E1D2 (OncoImmunin) reagent according to the manufacturer's instructions.
Western blotting. Tissues or cells were homogenized in lysis buffer (10 mM Tris base, pH 7.4, 150 mM NaCl, 1 mM EDTA, 1 mM EGTA, 1% Triton X-100, 0.5% NP-40, protease and phosphatase inhibitor cocktail (Roche)). Protein concentrations were determined using a Bradford assay kit (Bio-Rad) with bovine serum albumin as a standard. Proteins (40-100 μg) were run on NuPAGE Bis-Tris gels (Invitrogen) and transferred to Immun-Blot PVDF membranes (Bio-Rad). Cells were scraped in hot Laemmli buffer (62.5 mM Tris base, pH 6.8, 2% SDS, 5% 2-Mercaptoethanol, 10% Glycerol, 0.01% Bromophenol Blue). Samples were boiled and run on 4-20% NuPAGE Tris-Glycine gels (Invitrogen). The transferred membranes were blocked for 1 h at RT and incubated with antibodies against human Caspase-1 (1:500; Invitrogen), mouse Caspase1 (1:500; MBL), NLRP3 (1:1000; Enzo Life Sciences), PYCARD (1:1000, RayBiotech), phospho-IRAK1 (S376) (1:500, Thermo Scientific), phospho-IRAK4 (T345) (1:500, AbboMax), DICER1 (1:2,000; Bethyl), MyD88 (1:1,000; Cell Signaling), and mouse IL-18 (1:200; MBL) at 4° C. overnight. Protein loading was assessed by immunoblotting using an anti-Vinculin antibody (1:1,000; Sigma-Aldrich). The secondary antibodies were used (1:5,000) for 1 h at RT. […]
Caspase-1 activity. […] Caspalux1E1D2 signal was quantified reading the fluorescence (excitation 552 nm, emission 580 nm) using a Synergy 4 reader (Biotek). Quantification of fluorescence from images was performed by converting images into grayscale in Adobe Photoshop CS5, and measuring the integrated density of black and white images using ImageJ software (NIH) (Bogdanovich et al., 2008).

human RPE cells = test system: human RPE cells
Method: Cell viability. Cell viability measurements were performed using the CellTiter 96 AQueous One Solution Cell Proliferation Assay (Promega) in according to the manufacturer's instructions.
Cell culture. All cell cultures were maintained at 37° C. and 5% CO2. Primary mouse RPE cells were isolated as previously described (Yang et al., 2009) and grown in Dulbecco Modified Eagle Medium (DMEM) supplemented with 20% FBS and standard antibiotics concentrations. Primary human RPE cells were isolated as previously described (Yang et al., 2008) and maintained in DMEM supplemented with 10% FBS and antibiotics. HeLa cells were maintained in DMEM supplemented with 20% FBS and standard antibiotics concentrations. THP-1 cells were cultured in RPMI 1640 medium supplemented with 10% FBS and antibiotics.
Transient transfection. Human or mouse RPE cells were transfected with pUC19, pAlu, pCDNA3.1/Dicer-FLAG, pCDNA3.1, Alu RNA, NLRP3 siRNA sense, PYCARD siRNA sense, MyD88 siRNA sense, DICER1 antisense oligonucleotide (AS), control (for DICER1) AS, Alu AS, and control (for Alu) AS using Lipofectamine 2000 (Invitrogen) according to the manufacturer's instructions.
Cell viability. MTS assays were performed using the CellTiter 96 AQueous One Solution Cell Proliferation Assay (Promega) according to the manufacturer's instructions. For examining the cytoprotective effect of glycine in Alu RNA induced cell death, human RPE cells were transfected with pNull/pAlu. At 6 h post-transfection the cells were incubated with complete media containing glycine (5 mM) or vehicle, and cell viability was assessed after 24 h. Similarly, human RPE cells primed with LPS (5 μg/ml for 6 h) were treated with ATP (25 μM) in the presence of glycine containing media (5 mM). 30 min post ATP cell viability was assessed as described above.

Substance: MyD88 inhibitory peptide: peptide inhibitor of MyD88 homodimerization IMG-2005 (IMGENEX)
- Alu RNA-induced fluorescent substrate cleavage (Caspase-1 activity) (Caspase-1; Caspalux1): did not reduce
- Alu RNA-induced Caspase-1 cleavage (p20 subunit) (Caspase-1; western blot): did not reduce
- cell death in human RPE cells treated with antisense oligonucleotides targeting DICER1 (human RPE cells; DICER1 AS): prevented cell death
- pAlu-induced human RPE cell death (loss of cell viability) (human RPE cells; human RPE cells transfected with pAlu): inhibited cell death
